Reference: patent US10947296B2, “Fusion protein Slit2D2(C386S)-HSA and use thereof in treatment of fibrotic diseases” (SUZHOU THINKING POWER BIOTECHNOLOGY CO., LTD., priority 2016, dated 2021)

Tests used:
[1] = target: T1, Robo1 protein (Homo sapiens, UniProt Q9Y6N7); assay: Affinity of the fusion protein to receptor Robo1 determined by SPR; format: binding; details: Robo1 bound to CM5 chip
T1 construct: purchased ORIGEN TP327713
Experimental: The affinity constant between the protein and Robo1 protein was detected by SPR (Surface Plasmon resonance BIAcore 200) method. The Robo1 protein (ORIGEN, Art. No.: TP327713) was bound to a CM5 chip, and the interaction between the fusion protein Slit2D2(C386S)-HSA (prepared in Example 1), Slit2D2-HSA (as disclosed in Patent Application PCT/CN2015/092079), and the receptor protein Robo1 were analyzed. Kinetic measurements were performed according to the method referred by Canziani et al. (2004, Anal. Biochem. 325: 301-307). Furthermore, the affinity of the Slit2N protein (Slit2N is a protein having a molecular weight of about 120 kDa at the N-terminus of the Slit2 protein) to Robo1 protein was also determined by the same method.

[2] = Pharmacokinetic assay, single intravenous administration; format: in vivo; details: for Plasma drug concentration: IV 2 mg/kg
Experimental: Lines and sources: cynomolgus monkeys, Guangxi Xiongsen Primate Laboratory Animal Breeding Development Co., Ltd.
The test substance was administered in a single dose by intravenous injection.
The blood samples were collected and centrifuged to separate plasma (centrifugation conditions: 8000 rpm, 6 minutes, 2-8° C.). The contents of the label included: the subject number of Medicilon Pharmaceutical Technology (Shanghai) Co., Ltd., relevant test days, serial number of animals, date, and sampling time point. The collected plasma samples were stored in a refrigerator at ≤−65° C. before analysis. After analysis, the remaining plasma samples were stored in the refrigerator at ≤−65° C. for subsequent processing.
The biological sample analysis method and analysis of all samples were performed by the analytical laboratory of Medicilon Pharmaceutical Technology (Shanghai) Co., Ltd. Each plate in the sample analysis must contain a standard curve. At least ¾ of the points and not less than 6 non-zero concentration points (without anchor points) constituting the standard curve should meet the acceptance criteria for method validation. Each plate should also contain at least 2 sets and each set comprised at least 3 quality control samples of different concentration levels (high-concentration quality control, intermediate-concentration quality control, and low-concentration quality control).
The pharmacokinetic parameters were calculated with non-compartmental model using Phoenix pharmacokinetic software: AUC0-t, AUC0-∞, Cmax, t1/2, Tmax, C0, Cl, MRT0-∞ and Vss.

[3] = Mean of 4 animals, single IV 2 mg/kg

T1 sequence (Q9Y6N7 26-1651): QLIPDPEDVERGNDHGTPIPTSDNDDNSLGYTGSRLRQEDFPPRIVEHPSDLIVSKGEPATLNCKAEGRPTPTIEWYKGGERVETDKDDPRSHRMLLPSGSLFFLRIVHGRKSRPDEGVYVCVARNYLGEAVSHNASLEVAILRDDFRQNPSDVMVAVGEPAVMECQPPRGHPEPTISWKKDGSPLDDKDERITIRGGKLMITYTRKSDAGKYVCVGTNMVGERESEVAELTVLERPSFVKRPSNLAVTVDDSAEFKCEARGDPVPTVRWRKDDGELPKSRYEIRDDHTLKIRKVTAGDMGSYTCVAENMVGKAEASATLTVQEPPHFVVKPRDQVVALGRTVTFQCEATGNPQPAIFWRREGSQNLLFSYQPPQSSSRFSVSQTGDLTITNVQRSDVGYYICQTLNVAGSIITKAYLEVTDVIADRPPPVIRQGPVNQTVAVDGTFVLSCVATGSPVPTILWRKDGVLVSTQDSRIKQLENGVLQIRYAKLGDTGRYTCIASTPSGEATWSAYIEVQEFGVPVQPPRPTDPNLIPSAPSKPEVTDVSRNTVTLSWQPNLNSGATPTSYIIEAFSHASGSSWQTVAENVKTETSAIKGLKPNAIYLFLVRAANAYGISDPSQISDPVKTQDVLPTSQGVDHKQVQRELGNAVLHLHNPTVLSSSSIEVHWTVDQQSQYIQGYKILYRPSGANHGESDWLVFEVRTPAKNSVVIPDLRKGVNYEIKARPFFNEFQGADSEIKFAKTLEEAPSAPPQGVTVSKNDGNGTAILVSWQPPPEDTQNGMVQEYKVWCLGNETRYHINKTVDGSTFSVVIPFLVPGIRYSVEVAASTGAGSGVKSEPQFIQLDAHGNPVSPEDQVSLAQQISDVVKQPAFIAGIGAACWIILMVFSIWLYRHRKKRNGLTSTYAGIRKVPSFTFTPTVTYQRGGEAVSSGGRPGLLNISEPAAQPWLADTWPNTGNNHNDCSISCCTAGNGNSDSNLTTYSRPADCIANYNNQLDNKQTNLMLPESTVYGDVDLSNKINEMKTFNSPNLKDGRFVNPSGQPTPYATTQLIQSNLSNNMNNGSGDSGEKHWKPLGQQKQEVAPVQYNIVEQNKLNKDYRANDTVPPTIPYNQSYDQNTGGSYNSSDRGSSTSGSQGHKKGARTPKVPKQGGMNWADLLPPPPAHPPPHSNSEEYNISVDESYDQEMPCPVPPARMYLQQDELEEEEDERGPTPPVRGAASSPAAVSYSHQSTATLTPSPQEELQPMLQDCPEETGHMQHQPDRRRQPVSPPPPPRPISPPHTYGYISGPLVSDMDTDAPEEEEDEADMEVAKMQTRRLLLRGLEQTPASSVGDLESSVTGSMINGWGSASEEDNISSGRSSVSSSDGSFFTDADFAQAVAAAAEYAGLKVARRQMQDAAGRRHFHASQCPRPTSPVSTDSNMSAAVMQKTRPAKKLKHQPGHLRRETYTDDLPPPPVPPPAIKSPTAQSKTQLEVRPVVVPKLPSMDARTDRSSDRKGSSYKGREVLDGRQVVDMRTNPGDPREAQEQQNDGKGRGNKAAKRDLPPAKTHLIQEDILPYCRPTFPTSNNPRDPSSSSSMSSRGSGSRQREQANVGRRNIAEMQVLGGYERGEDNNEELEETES

Substance: Slit2D2(C386S)-HSA: Fusion protein of the Slit2 D2 domain with C386S mutation linked to human serum albumin; amino acid sequence SEQ ID NO: 3
- Ka [1]: 864700 M⁻¹ s⁻¹
- Plasma drug concentration ([2]; 101-Male, day 0.125): 16151.832 ng/mL
- Plasma drug concentration ([2]; 101-Male, day 0.25): 15501.583 ng/mL
- Plasma drug concentration ([2]; 101-Male, day 0.5): 13047.082 ng/mL
- Plasma drug concentration ([2]; 101-Male, day 2): 11326.279 ng/mL
- Plasma drug concentration ([2]; 101-Male, day 5): 6773.314 ng/mL
- Plasma drug concentration ([2]; 101-Male, day 6): 2717.981 ng/mL
- Plasma drug concentration ([2]; 101-Male, day 8): 1577.577 ng/mL
- Plasma drug concentration ([2]; 101-Male, day 11): BLQ (Below the minimum limit of quantitation)
- Plasma drug concentration ([2]; 101-Male, day 14): BLQ (Below the minimum limit of quantitation)
- Plasma drug concentration ([2]; 101-Male, day 17): BLQ (Below the minimum limit of quantitation)
- Plasma drug concentration ([2]; 101-Male, day 19): BLQ (Below the minimum limit of quantitation)
- Plasma drug concentration ([2]; 101-Male, day 22): BLQ (Below the minimum limit of quantitation)
- Plasma drug concentration ([2]; 101-Male, day 26): BLQ (Below the minimum limit of quantitation)
- Plasma drug concentration ([2]; 101-Male, day 29): BLQ (Below the minimum limit of quantitation)
- Plasma drug concentration ([2]; 101-Male, day 36): BLQ (Below the minimum limit of quantitation)
- Plasma drug concentration ([2]; 101-Male, day 43): BLQ (Below the minimum limit of quantitation)
- AUC(0-t) ([2]; 101-Male, single IV 2 mg/kg): 45588.03 ng·days/mL
- AUC(0-∞) ([2]; 101-Male, single IV 2 mg/kg): 50239.09 ng·days/mL
- C0 ([2]; 101-Male, single IV 2 mg/kg): 16829.36 ng/mL
- CL ([2]; 101-Male, single IV 2 mg/kg): 1.659 mL/h/kg
- Cmax ([2]; 101-Male, single IV 2 mg/kg): 16151.83 ng/mL
- MRT(0-∞) ([2]; 101-Male, single IV 2 mg/kg): 68.2 h
- Tmax ([2]; 101-Male, single IV 2 mg/kg): 3.12 h
- Vss ([2]; 101-Male, single IV 2 mg/kg): 0.11309 L/kg
- t1/2 ([2]; 101-Male, single IV 2 mg/kg): 49 h
- Plasma drug concentration ([2]; 102-Male, day 0.125): 12629.116 ng/mL
- Plasma drug concentration ([2]; 102-Male, day 0.25): 13612.467 ng/mL
- Plasma drug concentration ([2]; 102-Male, day 0.5): 13169.983 ng/mL
- Plasma drug concentration ([2]; 102-Male, day 2): 8055.924 ng/mL
- Plasma drug concentration ([2]; 102-Male, day 5): 4063.179 ng/mL
- Plasma drug concentration ([2]; 102-Male, day 6): 2215.633 ng/mL
- Plasma drug concentration ([2]; 102-Male, day 8): BLQ (Below the minimum limit of quantitation)
- Plasma drug concentration ([2]; 102-Male, day 11): BLQ (Below the minimum limit of quantitation)
- Plasma drug concentration ([2]; 102-Male, day 14): BLQ (Below the minimum limit of quantitation)
- Plasma drug concentration ([2]; 102-Male, day 17): BLQ (Below the minimum limit of quantitation)
- Plasma drug concentration ([2]; 102-Male, day 19): BLQ (Below the minimum limit of quantitation)
- Plasma drug concentration ([2]; 102-Male, day 22): BLQ (Below the minimum limit of quantitation)
- Plasma drug concentration ([2]; 102-Male, day 26): BLQ (Below the minimum limit of quantitation)
- Plasma drug concentration ([2]; 102-Male, day 29): BLQ (Below the minimum limit of quantitation)
- Plasma drug concentration ([2]; 102-Male, day 36): BLQ (Below the minimum limit of quantitation)
- Plasma drug concentration ([2]; 102-Male, day 43): BLQ (Below the minimum limit of quantitation)
- AUC(0-t) ([2]; 102-Male, single IV 2 mg/kg): 30270.94 ng·days/mL
- AUC(0-∞) ([2]; 102-Male, single IV 2 mg/kg): 37136.49 ng·days/mL
- C0 ([2]; 102-Male, single IV 2 mg/kg): 12629.12 ng/mL
- CL ([2]; 102-Male, single IV 2 mg/kg): 2.244 mL/h/kg
- Cmax ([2]; 102-Male, single IV 2 mg/kg): 13612.47 ng/mL
- MRT(0-∞) ([2]; 102-Male, single IV 2 mg/kg): 67.4 h
- Tmax ([2]; 102-Male, single IV 2 mg/kg): 6 h
- Vss ([2]; 102-Male, single IV 2 mg/kg): 0.15145 L/kg
- t1/2 ([2]; 102-Male, single IV 2 mg/kg): 51.6 h
- Plasma drug concentration ([2]; 103-Female, day 0.125): 13162.76 ng/mL
- Plasma drug concentration ([2]; 103-Female, day 0.25): 11266.684 ng/mL
- Plasma drug concentration ([2]; 103-Female, day 0.5): 9508.594 ng/mL
- Plasma drug concentration ([2]; 103-Female, day 2): 5952.269 ng/mL
- Plasma drug concentration ([2]; 103-Female, day 5): 3914.939 ng/mL
- Plasma drug concentration ([2]; 103-Female, day 6): 2155.966 ng/mL
- Plasma drug concentration ([2]; 103-Female, day 8): 731.688 ng/mL
- Plasma drug concentration ([2]; 103-Female, day 11): BLQ (Below the minimum limit of quantitation)
- Plasma drug concentration ([2]; 103-Female, day 14): BLQ (Below the minimum limit of quantitation)
- Plasma drug concentration ([2]; 103-Female, day 17): BLQ (Below the minimum limit of quantitation)
- Plasma drug concentration ([2]; 103-Female, day 19): BLQ (Below the minimum limit of quantitation)
- Plasma drug concentration ([2]; 103-Female, day 22): BLQ (Below the minimum limit of quantitation)
- Plasma drug concentration ([2]; 103-Female, day 26): BLQ (Below the minimum limit of quantitation)
- Plasma drug concentration ([2]; 103-Female, day 29): BLQ (Below the minimum limit of quantitation)
- Plasma drug concentration ([2]; 103-Female, day 36): BLQ (Below the minimum limit of quantitation)
- Plasma drug concentration ([2]; 103-Female, day 43): BLQ (Below the minimum limit of quantitation)
- AUC(0-t) ([2]; 103-Female, single IV 2 mg/kg): 28598.53 ng·days/mL
- AUC(0-∞) ([2]; 103-Female, single IV 2 mg/kg): 30524.24 ng·days/mL
- C0 ([2]; 103-Female, single IV 2 mg/kg): 15377.93 ng/mL
- CL ([2]; 103-Female, single IV 2 mg/kg): 2.73 mL/h/kg
- Cmax ([2]; 103-Female, single IV 2 mg/kg): 13162.76 ng/mL
- MRT(0-∞) ([2]; 103-Female, single IV 2 mg/kg): 61.9 h
- Tmax ([2]; 103-Female, single IV 2 mg/kg): 3.12 h
- Vss ([2]; 103-Female, single IV 2 mg/kg): 0.16888 L/kg
- t1/2 ([2]; 103-Female, single IV 2 mg/kg): 43.7 h
- Plasma drug concentration ([2]; 104-Female, day 0.125): 13541.873 ng/mL
- Plasma drug concentration ([2]; 104-Female, day 0.25): 12289.107 ng/mL
- Plasma drug concentration ([2]; 104-Female, day 0.5): 10597.55 ng/mL
- Plasma drug concentration ([2]; 104-Female, day 2): 8296.324 ng/mL
- Plasma drug concentration ([2]; 104-Female, day 5): 3663.777 ng/mL
- Plasma drug concentration ([2]; 104-Female, day 6): 1433.272 ng/mL
- Plasma drug concentration ([2]; 104-Female, day 8): BLQ (Below the minimum limit of quantitation)
- Plasma drug concentration ([2]; 104-Female, day 11): BLQ (Below the minimum limit of quantitation)
- Plasma drug concentration ([2]; 104-Female, day 14): BLQ (Below the minimum limit of quantitation)
- Plasma drug concentration ([2]; 104-Female, day 17): BLQ (Below the minimum limit of quantitation)
- Plasma drug concentration ([2]; 104-Female, day 19): BLQ (Below the minimum limit of quantitation)
- Plasma drug concentration ([2]; 104-Female, day 22): BLQ (Below the minimum limit of quantitation)
- Plasma drug concentration ([2]; 104-Female, day 26): BLQ (Below the minimum limit of quantitation)
- Plasma drug concentration ([2]; 104-Female, day 29): BLQ (Below the minimum limit of quantitation)
- Plasma drug concentration ([2]; 104-Female, day 36): BLQ (Below the minimum limit of quantitation)
- Plasma drug concentration ([2]; 104-Female, day 43): BLQ (Below the minimum limit of quantitation)
- AUC(0-t) ([2]; 104-Female, single IV 2 mg/kg): 28034.90 ng·days/mL
- AUC(0-∞) ([2]; 104-Female, single IV 2 mg/kg): 31263.33 ng·days/mL
- C0 ([2]; 104-Female, single IV 2 mg/kg): 14922.35 ng/mL
- CL ([2]; 104-Female, single IV 2 mg/kg): 2.665 mL/h/kg
- Cmax ([2]; 104-Female, single IV 2 mg/kg): 13541.87 ng/mL
- MRT(0-∞) ([2]; 104-Female, single IV 2 mg/kg): 50.4 h
- Tmax ([2]; 104-Female, single IV 2 mg/kg): 3.12 h
- Vss ([2]; 104-Female, single IV 2 mg/kg): 0.13446 L/kg
- t1/2 ([2]; 104-Female, single IV 2 mg/kg): 37.4 h
- AUC(0-t) [2, 3]: 33123.10 ng·days/mL
- AUC(0-∞) [2, 3]: 37290.79 ng·days/mL
- C0 [2, 3]: 14939.69 ng/mL
- CL [2, 3]: 2.325 mL/h/kg
- Cmax [2, 3]: 14117.23 ng/mL
- MRT(0-∞) [2, 3]: 61.9 h
- Tmax [2, 3]: 3.84 h
- Vss [2, 3]: 0.14197 L/kg
- t1/2 [2, 3]: 45.4 h
- Plasma drug concentration ([2]; Mean, day 0.125): 13871.40 ng/mL
- Plasma drug concentration ([2]; Mean, day 0.25): 13167.46 ng/mL
- Plasma drug concentration ([2]; Mean, day 0.5): 11580.80 ng/mL
- Plasma drug concentration ([2]; Mean, day 2): 8407.70 ng/mL
- Plasma drug concentration ([2]; Mean, day 5): 4603.80 ng/mL
- Plasma drug concentration ([2]; Mean, day 6): 2130.71 ng/mL
- Plasma drug concentration ([2]; Mean, day 8): 1154.63 ng/mL
- Observation during the test (morbidity, damage, death rate, food and water supply) ([2]; single IV 2 mg/kg): No abnormal findings
- ratio of AUC(0-∞) between male and female ([2]; single IV 2 mg/kg): 1.41
- ratio of Cmax between male and female ([2]; single IV 2 mg/kg): 1.11
- ratio of t1/2 between male and female ([2]; single IV 2 mg/kg): 1.24
